Test results from IntAct's records for PubMed 25487150.

Experiments:
[1] = target: pp11_schpo dis2 (UniProt P13681)
[2] = target: pp11_schpo dis2 (UniProt P13681); remark: listed apart in the source
[3] = target: pp1a_human PPP1CA (UniProt P62136)
[4] = target: pp1g_human PPP1CC (UniProt P36873)
[5] = target: pp1b_human PPP1CB (UniProt P62140)
Chain of pp1b_human PPP1CB (P62140 whole entry): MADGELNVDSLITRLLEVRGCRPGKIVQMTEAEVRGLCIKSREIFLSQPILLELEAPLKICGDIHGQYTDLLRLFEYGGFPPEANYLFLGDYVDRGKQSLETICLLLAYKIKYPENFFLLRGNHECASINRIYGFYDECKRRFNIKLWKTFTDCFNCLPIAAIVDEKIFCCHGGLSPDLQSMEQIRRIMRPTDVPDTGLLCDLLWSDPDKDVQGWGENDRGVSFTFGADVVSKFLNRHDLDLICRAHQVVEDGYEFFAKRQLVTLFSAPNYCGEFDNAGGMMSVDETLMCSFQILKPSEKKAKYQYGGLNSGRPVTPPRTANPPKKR

Chain of pp11_schpo dis2 (P13681 whole entry): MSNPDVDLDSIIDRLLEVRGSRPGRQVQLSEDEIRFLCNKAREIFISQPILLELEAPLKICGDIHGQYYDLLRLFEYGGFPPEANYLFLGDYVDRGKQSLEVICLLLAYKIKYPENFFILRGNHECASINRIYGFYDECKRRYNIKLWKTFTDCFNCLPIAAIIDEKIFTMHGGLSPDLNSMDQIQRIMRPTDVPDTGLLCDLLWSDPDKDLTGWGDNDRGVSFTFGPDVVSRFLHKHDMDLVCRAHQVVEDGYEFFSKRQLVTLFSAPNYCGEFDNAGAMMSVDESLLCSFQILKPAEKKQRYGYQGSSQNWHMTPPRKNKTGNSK
Chain of Serine/threonine-protein phosphatase 2A 56 kDa regulatory subunit delta 1 isoform (Schizosaccharomyces pombe (strain ATCC 38366 / 972)), Q10428 G367V (Q10428 whole entry G367V, canonical isoform): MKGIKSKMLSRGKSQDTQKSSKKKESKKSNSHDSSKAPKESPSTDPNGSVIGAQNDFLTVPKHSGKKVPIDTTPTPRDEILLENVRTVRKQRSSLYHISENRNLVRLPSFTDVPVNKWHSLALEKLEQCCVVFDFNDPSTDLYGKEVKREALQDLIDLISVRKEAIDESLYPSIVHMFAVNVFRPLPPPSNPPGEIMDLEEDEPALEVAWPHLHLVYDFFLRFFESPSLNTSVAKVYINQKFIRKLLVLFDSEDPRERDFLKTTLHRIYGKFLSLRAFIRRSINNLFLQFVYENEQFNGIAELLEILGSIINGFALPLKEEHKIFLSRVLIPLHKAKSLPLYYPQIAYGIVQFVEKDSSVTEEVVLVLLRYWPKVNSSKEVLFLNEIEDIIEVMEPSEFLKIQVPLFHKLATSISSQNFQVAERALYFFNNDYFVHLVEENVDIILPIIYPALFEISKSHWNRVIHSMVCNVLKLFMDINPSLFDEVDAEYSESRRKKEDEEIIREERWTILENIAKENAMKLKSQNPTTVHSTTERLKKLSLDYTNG
Chain of Serine/threonine-protein phosphatase 2A 56 kDa regulatory subunit delta 1 isoform (Schizosaccharomyces pombe (strain ATCC 38366 / 972)), Q10428 K379A;V381A;F383A (Q10428 whole entry K379A/V381A/F383A, canonical isoform): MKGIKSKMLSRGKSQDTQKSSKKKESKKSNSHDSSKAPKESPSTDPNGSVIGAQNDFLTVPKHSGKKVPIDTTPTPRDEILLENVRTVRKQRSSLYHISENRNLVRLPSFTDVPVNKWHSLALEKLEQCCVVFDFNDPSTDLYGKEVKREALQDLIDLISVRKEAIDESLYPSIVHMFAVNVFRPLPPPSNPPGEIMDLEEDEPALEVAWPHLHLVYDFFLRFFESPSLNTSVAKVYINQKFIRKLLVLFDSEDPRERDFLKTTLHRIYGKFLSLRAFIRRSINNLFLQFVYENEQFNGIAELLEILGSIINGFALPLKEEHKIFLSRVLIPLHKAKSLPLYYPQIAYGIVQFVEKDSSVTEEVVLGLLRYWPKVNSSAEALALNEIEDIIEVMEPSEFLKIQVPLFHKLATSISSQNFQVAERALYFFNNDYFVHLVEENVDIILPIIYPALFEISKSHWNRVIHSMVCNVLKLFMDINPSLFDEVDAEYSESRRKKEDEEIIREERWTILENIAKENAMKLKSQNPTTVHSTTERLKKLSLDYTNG
Chain of Serine/threonine-protein phosphatase 2A 56 kDa regulatory subunit delta 1 isoform (Schizosaccharomyces pombe (strain ATCC 38366 / 972)), Q10428 G367A;V381A (Q10428 whole entry G367A/V381A, canonical isoform): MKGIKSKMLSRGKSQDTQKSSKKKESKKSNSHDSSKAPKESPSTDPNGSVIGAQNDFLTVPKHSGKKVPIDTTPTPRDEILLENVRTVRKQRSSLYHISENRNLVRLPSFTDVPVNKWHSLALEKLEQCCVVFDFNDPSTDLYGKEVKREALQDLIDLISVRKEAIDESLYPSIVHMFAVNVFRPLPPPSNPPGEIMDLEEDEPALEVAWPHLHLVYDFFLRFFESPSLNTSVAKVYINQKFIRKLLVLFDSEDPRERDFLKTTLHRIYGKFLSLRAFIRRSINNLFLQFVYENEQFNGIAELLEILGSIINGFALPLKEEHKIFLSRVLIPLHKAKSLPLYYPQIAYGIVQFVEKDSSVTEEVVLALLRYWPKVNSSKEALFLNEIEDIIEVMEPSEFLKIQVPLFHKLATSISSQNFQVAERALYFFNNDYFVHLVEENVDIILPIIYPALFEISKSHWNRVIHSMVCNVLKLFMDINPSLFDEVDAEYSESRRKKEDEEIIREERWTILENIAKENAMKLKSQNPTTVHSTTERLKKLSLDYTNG
Chain of Serine/threonine-protein phosphatase 2A 56 kDa regulatory subunit delta 1 isoform (Schizosaccharomyces pombe (strain ATCC 38366 / 972)), Q10428 G367A (Q10428 whole entry G367A, canonical isoform): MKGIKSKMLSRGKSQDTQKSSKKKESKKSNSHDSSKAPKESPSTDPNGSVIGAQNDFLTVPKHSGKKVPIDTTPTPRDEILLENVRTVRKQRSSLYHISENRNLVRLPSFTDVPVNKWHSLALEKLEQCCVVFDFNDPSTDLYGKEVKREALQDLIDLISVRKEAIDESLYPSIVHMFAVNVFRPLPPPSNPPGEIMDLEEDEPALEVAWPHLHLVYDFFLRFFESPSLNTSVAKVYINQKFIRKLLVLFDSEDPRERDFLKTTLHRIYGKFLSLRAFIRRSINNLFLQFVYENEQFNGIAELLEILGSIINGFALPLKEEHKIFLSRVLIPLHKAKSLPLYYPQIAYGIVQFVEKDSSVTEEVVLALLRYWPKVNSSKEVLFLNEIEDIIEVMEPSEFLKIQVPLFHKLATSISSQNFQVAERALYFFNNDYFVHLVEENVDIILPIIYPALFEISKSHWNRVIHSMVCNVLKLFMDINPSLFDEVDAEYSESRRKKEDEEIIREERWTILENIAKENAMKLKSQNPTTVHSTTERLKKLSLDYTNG
Chain of pp1a_human PPP1CA (P62136 whole entry): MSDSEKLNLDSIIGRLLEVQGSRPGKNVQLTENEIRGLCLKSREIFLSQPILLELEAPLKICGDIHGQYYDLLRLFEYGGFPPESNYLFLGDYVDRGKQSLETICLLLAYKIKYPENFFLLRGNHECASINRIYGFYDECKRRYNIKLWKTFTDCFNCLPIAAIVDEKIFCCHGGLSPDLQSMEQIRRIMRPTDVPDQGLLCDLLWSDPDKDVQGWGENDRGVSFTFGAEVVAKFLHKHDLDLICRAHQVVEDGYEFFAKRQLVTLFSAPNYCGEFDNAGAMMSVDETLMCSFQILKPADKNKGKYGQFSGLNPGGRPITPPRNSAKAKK
Chain of Serine/threonine-protein phosphatase 2A 56 kDa regulatory subunit delta 1 isoform (Schizosaccharomyces pombe (strain ATCC 38366 / 972)), Q10428 G367V;V381A (Q10428 whole entry G367V/V381A, canonical isoform): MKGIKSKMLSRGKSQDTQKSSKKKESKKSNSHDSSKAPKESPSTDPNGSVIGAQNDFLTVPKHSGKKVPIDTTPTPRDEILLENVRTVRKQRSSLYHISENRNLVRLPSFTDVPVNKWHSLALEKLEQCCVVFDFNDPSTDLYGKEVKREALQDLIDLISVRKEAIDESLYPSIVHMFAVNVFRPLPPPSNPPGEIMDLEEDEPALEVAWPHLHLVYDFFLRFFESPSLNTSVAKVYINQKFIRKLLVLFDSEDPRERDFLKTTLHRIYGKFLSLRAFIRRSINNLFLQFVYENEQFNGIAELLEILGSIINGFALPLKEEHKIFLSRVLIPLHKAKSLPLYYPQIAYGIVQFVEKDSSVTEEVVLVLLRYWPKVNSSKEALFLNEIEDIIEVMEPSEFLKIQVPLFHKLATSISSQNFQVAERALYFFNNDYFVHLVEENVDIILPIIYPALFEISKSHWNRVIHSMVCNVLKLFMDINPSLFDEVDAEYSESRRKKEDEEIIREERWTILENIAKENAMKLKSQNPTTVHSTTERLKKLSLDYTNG
Chain of Serine/threonine-protein phosphatase 2A 56 kDa regulatory subunit delta 1 isoform (Schizosaccharomyces pombe (strain ATCC 38366 / 972)), Q10428 G367V;K379A;V381A;F383A (Q10428 whole entry G367V/K379A/V381A/F383A, canonical isoform): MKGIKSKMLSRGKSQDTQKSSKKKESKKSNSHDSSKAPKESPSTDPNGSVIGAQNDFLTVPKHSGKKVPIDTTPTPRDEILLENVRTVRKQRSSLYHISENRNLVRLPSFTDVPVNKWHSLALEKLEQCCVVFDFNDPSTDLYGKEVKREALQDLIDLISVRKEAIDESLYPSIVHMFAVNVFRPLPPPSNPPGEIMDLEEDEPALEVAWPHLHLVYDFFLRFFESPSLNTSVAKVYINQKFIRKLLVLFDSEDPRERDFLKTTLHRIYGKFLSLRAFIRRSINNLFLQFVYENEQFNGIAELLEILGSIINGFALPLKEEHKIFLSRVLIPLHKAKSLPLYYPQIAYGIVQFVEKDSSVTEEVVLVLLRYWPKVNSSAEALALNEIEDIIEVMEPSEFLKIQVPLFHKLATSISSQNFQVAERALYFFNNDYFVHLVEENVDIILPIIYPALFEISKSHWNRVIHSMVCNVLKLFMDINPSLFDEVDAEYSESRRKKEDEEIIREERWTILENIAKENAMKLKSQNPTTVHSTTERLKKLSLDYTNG
Chain of pp1g_human PPP1CC (P36873 whole entry, looked up): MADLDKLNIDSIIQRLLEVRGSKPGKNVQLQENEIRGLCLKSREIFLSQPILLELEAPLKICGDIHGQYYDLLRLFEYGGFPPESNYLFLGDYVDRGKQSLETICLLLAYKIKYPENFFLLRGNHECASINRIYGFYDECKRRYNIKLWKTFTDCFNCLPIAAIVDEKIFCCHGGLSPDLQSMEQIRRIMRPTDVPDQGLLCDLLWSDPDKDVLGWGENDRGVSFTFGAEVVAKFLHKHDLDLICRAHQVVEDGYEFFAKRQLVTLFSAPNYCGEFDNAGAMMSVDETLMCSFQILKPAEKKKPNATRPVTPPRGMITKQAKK

| Substance | effect of a mutation on the interaction [1] | effect of a mutation on the interaction [2] | other results |
| --- | --- | --- | --- |
| Serine/threonine-protein phosphatase 2A 56 kDa regulatory subunit delta 1 isoform (Schizosaccharomyces pombe (strain ATCC 38366 / 972)), Q10428 K379A;V381A;F383A | disrupting interaction strength | decreasing interaction strength | – |
| Serine/threonine-protein phosphatase 2A 56 kDa regulatory subunit delta 1 isoform (Schizosaccharomyces pombe (strain ATCC 38366 / 972)), Q10428 G367A | disrupting interaction strength | decreasing interaction strength | – |
| Serine/threonine-protein phosphatase 2A 56 kDa regulatory subunit delta 1 isoform (Schizosaccharomyces pombe (strain ATCC 38366 / 972)), Q10428 S378D | – | disrupting interaction strength | – |
| Serine/threonine-protein phosphatase 2A 56 kDa regulatory subunit gamma isoform (Homo sapiens) (from UniProt Q13362) L289A;L290A;V302A;F304A | – | – | effect of a mutation on the interaction [3]: disrupting interaction strength; effect of a mutation on the interaction [4]: disrupting interaction strength; effect of a mutation on the interaction [5]: disrupting interaction strength |
| Serine/threonine-protein phosphatase 2A 56 kDa regulatory subunit delta 1 isoform (Schizosaccharomyces pombe (strain ATCC 38366 / 972)), Q10428 G367V;V381A | – | decreasing interaction strength | – |

Second part, led by results:

| effect of a mutation on the interaction [1] | effect of a mutation on the interaction [2] | Substance | other results |
| --- | --- | --- | --- |
| disrupting interaction strength | decreasing interaction strength | Serine/threonine-protein phosphatase 2A 56 kDa regulatory subunit delta 1 isoform (Schizosaccharomyces pombe (strain ATCC 38366 / 972)), Q10428 G367V | – |
| – | disrupting interaction strength | Serine/threonine-protein phosphatase 2A 56 kDa regulatory subunit delta 1 isoform (Schizosaccharomyces pombe (strain ATCC 38366 / 972)), Q10428 G367A;K379A;V381A;F383A | – |
| – | disrupting interaction strength | Serine/threonine-protein phosphatase 2A 56 kDa regulatory subunit delta 1 isoform (Schizosaccharomyces pombe (strain ATCC 38366 / 972)), Q10428 G367V;K379A;V381A;F383A | – |
| disrupting interaction strength | decreasing interaction strength | Serine/threonine-protein phosphatase 2A 56 kDa regulatory subunit delta 1 isoform (Schizosaccharomyces pombe (strain ATCC 38366 / 972)), Q10428 G367A;V381A | – |
